According to the supplement of paper PMC9170038:

What was measured:
Conditions in all cases: FMN input: 0 or 200 uM; Eterna round: R93 (includes R88 designs)
MS2 coat protein [1] = assay: apparent KD of MS2 coat protein, switch ON state; designed switch direction (-1 OFF switch, 1 ON switch): 1; higher = weaker reporter binding
Outline: (§1)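 Apparent KD per design is the median of normalised cluster binding-curve fits. Designed RNA switches transcribed on-chip from Illumina sequencing clusters were titrated with SNAP-549-labelled MS2 coat protein in twofold steps from 0.7 or 1.5 nM to 3 µM, with 0.8–1.5 h down to 10–20 min per step. Buffer: 100 mM Tris-HCl pH 7.5, 80 mM KCl, 4 mM MgCl2, without or with constant ligand.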

MS2 coat protein [2] = assay: apparent KD of MS2 coat protein, switch OFF state (with FMN for OFF switches, without FMN for ON switches); designed switch direction (-1 OFF switch, 1 ON switch): 1; higher = weaker reporter binding
Outline: as §1

MS2 coat protein [3] = assay: apparent KD of MS2 coat protein, switch OFF state (with FMN for OFF switches, without FMN for ON switches); designed switch direction (-1 OFF switch, 1 ON switch): -1; higher = weaker reporter binding
Outline: as §1

MS2 coat protein [4] = assay: apparent KD of MS2 coat protein, switch ON state; designed switch direction (-1 OFF switch, 1 ON switch): -1; higher = weaker reporter binding
Outline: as §1

Row | Sequence | apparent KD of MS2 coat protein (MS2 coat protein [1]) | apparent KD of MS2 coat protein (MS2 coat protein [2]) | apparent KD of MS2 coat protein (MS2 coat protein [3]) | apparent KD of MS2 coat protein (MS2 coat protein [4])
1 | AAAAAAAAAACUCAGGAUAUAGAUAAUUGAACAUGAGGAUCACCCAUGUAGUGAAAAAAAAAAAAUUAGAAGGGAGGAAAAAAAAA [SameState2-01] | 52.9 nM | 45.4 nM |  | 
2 | AAAAAAAAAAGACAGGAUAUCCAAAAGAAAACAUGAGGAUCACCCAUGUAAAAGAAAAUAAAAUGGGAGAAGGGUCAAAAUAAAG [Mat - Same State 2 - JL mod - D74] | 9.39 nM | 58.2 nM |  | 
3 | AAAAAAAAAAGGCAGGAUAUCCAAAAAAAAACAUGAGGAUCACCCAUGUAAAAAAAAAAAAAAUGGGAGAAGGGCCAAAAAAAAA [Mat - Same State 2 - Rerun Eli mod - D85] | 63.1 nM | 64.4 nM |  | 
4 | AAAAAAAAUGUGUAGGAUAUCAGUAAAAAUACAUGAGGAUCACCCAUGUUCAAAAAAAAAAAAACUGAGAAGGACACGGGAAGUCC [Design 2] | 20.5 nM | 18.5 nM |  | 
5 | AAAAAACAUGAGGAUCACCCAUGUAAAAAAAACACAGGAUAUCCCUUUUAAAAAAAAAAAGGAGAAGGGUGAAAAA [Nob's Hobby 5 - Jieux - Same State 1] | 16.1 nM | 29.9 nM |  | 
6 | AAAAAACAUGAGGAUCACCCAUGUAAAAAAAAUGGAGGAUAUUGGAAAAAAAAAAAAAAACGAGAAGGCUAAAAAA [quick and simple] | 44.4 nM | 50.4 nM |  | 
7 | AAAAAACAUGAGGAUCACCCAUGUAAAAAAAUCGCAGGAUAUAGGGUCGCGAAAGCGACCCUAGAAGGGCGAUCCU [Louisiana 2 - Jieux - Same State 1] | 52 nM | 76.1 nM |  | 
8 | AAAAAACAUGAGGAUCACCCAUGUAAAAAAAUGGGAGGAUAUACAAAAACGAAAAAAAAAGUAGAAGGCCUGAAAA [same state 8] | 57.4 nM | 162 nM |  | 
9 | AAAAAACAUGAGGAUCACCCAUGUAAAAAAAUGGGAGGAUAUACAAAGACGAAAGUCAAAGUAGAAGGCCUGAAAG [same state 3] | 21.7 nM | 58.4 nM |  | 
10 | AAAAAACAUGAGGAUCACCCAUGUAAAAAUAUGGAAGGAUAUGGAAACACGAAAGUGAAACCAGAAGGUCUAAAAG [77%, Mat - Mod of Eli, 10] | 17.1 nM | 21.3 nM |  | 
11 | AAAAAACAUGAGGAUCACCCAUGUAAACCUCAUGUAGGAUAUACAAAAAAAAAAAAAAAAGUAGAAGGACAAAAAA [Omei A variation 2] | 4790 nM | 1970 nM |  | 
12 | AAAAAACAUGAGGAUCACCCAUGUCUUUUGACAUGAGGAUAUGUACAGACUUCGGUCUGUACAGAAGGCAUGAAAA [SS1 - 1029] | 48.4 nM | 432 nM |  | 
13 | AAAAAACAUGAGGAUCACCCAUGUGACAACAUGGGAGGAUAUACGAAGACGAGAGUCGAAGUAGAAGGCCUAAAAA [Garnet 76] | 98.5 nM | 65.2 nM |  | 
14 | AAAAAACAUGAGGAUCACCCAUGUGCAAAAUUCGCAGGAUAUCCCUUUUUUAAAUGGGAGGGAGAAGGGUGAAAAA [Nob's Hobby 17 - Jieux - Same State 1] | 23.7 nM | 76 nM |  | 
15 | AAAAAACAUGAGGAUCACCCAUGUGCAAAAUUCGCAGGAUAUUCCUCAAUUAAAUGAAAGGAAGAAGGGUGAUAAA [Nob's Hobby 31 - Jieux - Same State 1] | 79.7 nM | 429 nM |  | 
16 | AAAAAAUAAAAAAAGGAUAUCUGCAGUACGACAUGAGGAUCACCCAUGUGGUACUGCAGAUAUCAAAAGAAGGAAAAAUAAAAAA [SS2: MS2 52] | 13.6 nM | 18.1 nM |  | 
17 | AAAACACAUGAGGAUCACCCAUGUAAAAACAUGGGAGGAUAUGCAUGGAAAACAUGCUAUGCAGAAGGCUCAUGUG [SS1 - 6] | 14.9 nM | 17.2 nM |  | 
18 | AAAACUACAGAUCAGGAUAUGUUUGGGUAAACAUGAGGAUCACCCAUGUGCACCCGAUAAACAACACAGAAGGGAUAACGUGGGA [Soensole] | 12.7 nM | 23.7 nM |  | 
19 | AAAAGACAUGAGGAUCACCCAUGUAAAAACUUGAGAGGAUAUGCUUGAAAAACAUGCUAUGCAGAAGGCUCUAGUC [SS1 - 16] | 21.3 nM | 28.2 nM |  | 
20 | AAAAGACAUGAGGAUCACCCAUGUAGGCCAAAGCAAGGAUAUAGGCCACAGGGACGUGGACUAGAAGGUGCACGGC [Xereedes] | 21.9 nM | 107 nM |  | 
21 | AAAAGACAUGAGGAUCACCCAUGUCAAGACAUAGGAGGAUAUGUCGUGAAAAAAGACUUGGCAGAAGGCCUUUGUC [SS1 - 47] | 14.3 nM | 16.1 nM |  | 
22 | AAAAGACAUGAGGAUCACCCAUGUCGAAAGACAUGAGGAUAUGUACAGACUUCGGUCUGUACAGAAGGCAUGAAAA [SS1 - 1067] | 17.1 nM | 68.7 nM |  | 

Row | Sequence | apparent KD of MS2 coat protein (MS2 coat protein [1]) | apparent KD of MS2 coat protein (MS2 coat protein [2]) | apparent KD of MS2 coat protein (MS2 coat protein [3]) | apparent KD of MS2 coat protein (MS2 coat protein [4])
23 | AAAAGACAUGAGGAUCACCCAUGUCGAAAGACAUGAGGAUAUGUACAGACUUCGGUCUGUACAGAAGGCAUGUAAA [SS1 - 1068] | 16.7 nM | 50.3 nM |  | 
24 | AAAAGACAUGAGGAUCACCCAUGUCUUCGGACAUGAGGAUAUGUACAGACUUCGGUCUGUACAGAAGGCAUGAAAA [SS1 - 1065] | 18.5 nM | 48.3 nM |  | 
25 | AAAAUAAAAAGGCAGGAUAUCCAAAAUAAAACAUGAGGAUCACCCAUGUAAAUAAAAAUAAAGUGGGAGAAGGGUUAAAAAUAAAA [High Roller3] | 32.5 nM | 46.8 nM |  | 
26 | AAAAUAAAAUAAAAGGAUAUAAAAAAAUAUACAUGAGGAUCACCCAUGUAUAUAAAAAUAAAAUAAAAGAAGGAAUAAAAAUAAA [SS2 506: MS2 6] | 10.3 nM | 11.1 nM |  | 
27 | AAAAUACAUGAGGAUCACCCAUGUGAAAAUAUGGAAGGAUAUACGAAAAAUAAAUAAAACGUAGAAGGUCUAAAAA [SS! 1 MT 3] | 23.8 nM | 38.4 nM |  | 
28 | AAAAUACAUGAGGAUCACCCAUGUGAAAAUAUGGAAGGAUAUCAAUGCAAAAAAAAGCAUUGAGAAGGUCCAAAAA [SS! 1 MT 8] | 16.7 nM | 26.9 nM |  | 
29 | AAAAUACAUGAGGAUCACCCAUGUGAAAAUAUGGGAGGAUAUCAUGGAAAAAAAAAAACAUGAGAAGGCCCAAAAA [SS! 1 MT 10] | 24.8 nM | 104 nM |  | 
30 | AAAAUACAUGAGGAUCACCCAUGUGAGAAAAACGCAGGAUAUGCAAAAAAAAAAAAAAAAGCAGAAGGGUGAAAAA [SameState1-I] | 54.8 nM | 103 nM |  | 
31 | AAACAGCACAGGUAGGAUAUGUAGGGUGGUACAUGAGGAUCACCCAUGUAUCCACCCUUCGAAAGGCAGAAGGGCCUGCCGCUGC [Cealaes] | 15.4 nM | 16.6 nM |  | 
32 | AAACCACAUGAGGAUCACCCAUGUAAAAUAUACAUAGGAUAUGCGAAAAGAAACAAAGAAGCAGAAGGGUGAAAAA [75%, Ex sub1, 16] | 36.4 nM | 32.1 nM |  | 
33 | AAACCACAUGAGGAUCACCCAUGUAAAAUUAUGGGAGGAUAUACUAGAAGAAACAAAAUAGUAGAAGGCCUAAAAA [75%, Ex sub1, 33] | 15.9 nM | 74.2 nM |  | 
34 | ACCCGACAUGAGGAUCACCCAUGUAAACAAUCAUGAGGAUAUCCGGAGCAAGUGCUCCAGGGAGAAGGCAUAAAAG [Reesbema] |  | 122 nM |  | 
35 | AGGUAACAUGAGGAUCACCCAUGUACCAAUAAUGCAGGAUAUCGACACGAAAAUACGUGUCGAGAAGGGCAUGAAA [SS1 MT 22] | 13.4 nM |  |  | 
36 | UAUGAGCGAGGAUAUGCUUGGGACUGUCGGAAUGUGGCGGGACAUGAGGAUCACCCAUGUAGAAGGCGCGAGCG [Harteesian Stick] |  |  | 126 nM | 77.9 nM
37 | UCCGAACAUGAGGAUCACCCAUGUCAGGAUAUACACCCAGCAUGUAAACCAUGCUCAAGUAGAAGGGACGGGUG [Teisaes] |  |  | 25.7 nM | 34.9 nM
38 | UCCUCACAUGAGGAUCACCCAUGUGAGGAUAUGUACAUCAGGAAAAAAAAACUGAUGUACAGAAGGCACAUGGG [Design 8: Super Stable G-C] |  |  | 15.2 nM | 30.8 nM
39 | UCGUGGUCAGGAUAUACAUGAGGAUCACCCAUGUAAAAGAACAUAAAGGAGAGACGACGUAGAAGGGACAAAUA [Ralasoena] |  |  | 51.5 nM | 46.3 nM
40 | UGCAUGUAAGGAUAUGCAACCGGCGCACAUUAGCAGGUCAAGCAGAAGGUACAUGAGGAUCACCCAUGUGUCCG [Lalebiis] |  |  | 99.4 nM | 26.9 nM
41 | UGUUGGCGAGGAUAUACAUGAGGAUCACCCAUGUGAGAGAAAAAAGUGAGAAAGAAAAGUAGAAGGCGCUGACC [salish99-ex3-10] |  |  | 203 nM | 68.5 nM
42 | UUUAUGUGAGGAUAUCAGUAGUAAAAAAAUAAAAUUACUACUGAGAAGGCACAUGAGGAUCACCCAUGUGAAAA [EX4 340: Super Stable 40] |  |  | 161 nM | 61.9 nM
43 | UUUUGACAUGAGGAUCACCCAUGUCAGGAUAUAGUAGGAAAAAAAAAAAAAAAAACUACUAGAAGGGAUAUGGA [Design 15: Not So Super Stable 1] |  |  | 40.2 nM | 21.7 nM
